Assay results published in paper PMC4319893, “Targeting Protein-Protein Interactions with Trimeric Ligands: High Affinity Inhibitors of the MAGUK Protein Family” (PLoS ONE, 2015).

Target: PSD-95 PDZ3 (human)
Test: fluorescence polarisation; truncation study of CRIPT C-terminal peptides on PSD-95 PDZ3 and PSD-95 FL (S1 Table); probe not told

- affinity: > 50 µM
B1: IETAV (peptide)
peptide: IETAV
